Where a chain is given by its changes, count along the chain named.
B1: 10E8 IgG mutant 3 (antibody, V domains shown)
VH: EVQLVESGGGLVKPGGSLRLSCSASGFDFDNAWMTWVRQPPGKGLEWVGRITGPGEGWSVDYAAPVEGRFTISRLNSINFLYLEMNNLRMEDSGLYFCARTGKYYDFWSGYPPGEEYFQDWGRGTLVTVSS
VL: SYELTQETGVSVALGDTVTITCEGDSLESHYASWYQKKPGQAPILLFYGDDNRPSGVPDRFSGDADGNEASLTIDGAQAEDDAEYYCSSRDKSGSRLSVFGGGTKLTVL
notes: IgG; also called 10E8 mut 3; copies: 2 + 2
B2: 10E8 IgG mutant 5 (antibody, V domains shown)
VH: B1 VH
VL: B1 VL with D16R, E23R, E28A, Y31A, D50K, D51N, D64S, D66S, E69R, D75S
notes: IgG; also called 10E8 mut 5; copies: 2 + 2
B3: 10E8 IgG mutant 1 (antibody, V domains shown)
VH: B1 VH
VL: B1 VL with D16Q, E23Q, E28R, D50K, D51N, D64S, D66S, E69T, D75S
notes: also called 10E8 mut 1; copies: 2 + 2
B4: 10E8 IgG mutant 2 (antibody, V domains shown)
VH: B1 VH
VL: B1 VL with D50K, D51N, D64S, D66S, D75S
notes: IgG; also called 10E8 mut 2; copies: 2 + 2

Columns and labels:
T117v2 epitope-scaffold [1] = target: T1, T117v2 epitope-scaffold (synthetic construct (designed scaffold …)); experiment: SPR; ProteOn XPR36, GLC chip with amine-coupled capture antibody (Human Antibody Capture Kit) for ligand capture; 1x HBS-EP+ pH 7.4 with 1 mg/ml BSA; Langmuir model; Table 1 heads the IgGs as 'Analyte'; conditions: both partners purified
T1 construct: also called T117v2 scaffold; scaffolded MPER construct; source: expressed and purified as previously described [35]
T1 chain: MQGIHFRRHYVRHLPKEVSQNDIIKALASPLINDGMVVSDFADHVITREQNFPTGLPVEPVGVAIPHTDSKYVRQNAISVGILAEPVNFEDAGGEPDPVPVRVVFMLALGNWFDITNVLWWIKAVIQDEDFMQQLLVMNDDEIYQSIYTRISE

T117v2 epitope-scaffold [2] = target: T1, T117v2 epitope-scaffold; experiment: SPR; conditions: both partners purified

| Binder | Kd (T117v2 epitope-scaffold [1]) | koff (T117v2 epitope-scaffold [1]) | kon (T117v2 epitope-scaffold [1]) | Kd (T117v2 epitope-scaffold [2]) | koff (T117v2 epitope-scaffold [2]) | kon (T117v2 epitope-scaffold [2]) |
| --- | --- | --- | --- | --- | --- | --- |
| B1 | 0.379 nM | 0.000211 s⁻¹ | 559000 M⁻¹ s⁻¹ | – | – | – |
| B2 | 0.123 nM | 0.00016 s⁻¹ | 1.3e+06 M⁻¹ s⁻¹ | – | – | – |
| B3 | 0.0112 nM | 4e-05 s⁻¹ | 3.57e+06 M⁻¹ s⁻¹ | – | – | – |
| B4 | – | – | – | 0.0164 nM | 4.6e-05 s⁻¹ | 2.8e+06 M⁻¹ s⁻¹ |
